# In US20240116985A1 (published 2024):
# Starred links: 1 amine or outer side, 2 acyl side, 3 side chain; linkers in the order of their positions; H or OH if unused. Positions of bridges follow the written chain, without caps; N, C: chain ends. Non-standard residues stand in square brackets, D forms with d. Primed or numbered codes have the meaning given here. PyrS2″ = (S)-3-amino-1-((pent-4-en-1-yloxy)carbonyl)pyrrolidine-3-carboxylic acid (stapling residue), C=CCCCOC(=O)N1CC[C@@](N[*:1])(C(=O)[*:2])C1; B5(24) = 2-amino-2-(pent-4-en-1-yl)hept-6-enoic acid, 2,2-bis(4-pentenyl)glycine (stitching residue), C=CCCCC(CCCC=C)(N[*:1])C(=O)[*:2]; TfeGA = (S)-2-amino-3-((carboxymethyl)(2,2,2-trifluoroethyl)amino)propanoic acid, O=C([C@H](CN(CC(=O)[*:3])CC(F)(F)F)N[*:1])[*:2]; B5(3) = 2,2-bis(4-pentenyl)glycine (stitching residue), C=CCCCC(CCCC=C)(N[*:1])C(=O)[*:2]; Asp(OEt)″ = aspartic acid side-chain ethyl ester, CCOC(=O)C[C@H](N[*:1])C(=O)[*:2]; Asp(OMe) = [Me]AspE, Asp side-chain methyl ester, COC(=O)C[C@H](N[*:1])C(=O)[*:2]; Phe(3-CF3) = N[C@@H](Cc1cccc(C(F)(F)F)c1)C(=O)O; Phe(3-COOH) = N[C@@H](Cc1cccc(C(=O)O)c1)C(=O)O; Phe(3-OMe) = COc1cccc(C[C@H](N)C(=O)O)c1; Phe(2-Cl) = N[C@@H](Cc1ccccc1Cl)C(=O)O; Bta = N[C@@H](Cc1csc2ccccc12)C(=O)O; Lys(iPr) = CC(C)NCCCC[C@H](N)C(=O)O; αAllylPro = C=CC[C@@]1(C(=O)O)CCCN1; tBuAla = CC(C)(C)C[C@H](N)C(=O)O; 3Thi = N[C@@H](Cc1ccsc1)C(=O)O; Cha = N[C@@H](CC1CCCCC1)C(=O)O; hSer = N[C@@H](CCO)C(=O)O; Aib = CC(C)(N)C(=O)O
# Biological target: T1, B-cat-Halo (UniProt P35222 1-781)
# T1 sequence (looked up): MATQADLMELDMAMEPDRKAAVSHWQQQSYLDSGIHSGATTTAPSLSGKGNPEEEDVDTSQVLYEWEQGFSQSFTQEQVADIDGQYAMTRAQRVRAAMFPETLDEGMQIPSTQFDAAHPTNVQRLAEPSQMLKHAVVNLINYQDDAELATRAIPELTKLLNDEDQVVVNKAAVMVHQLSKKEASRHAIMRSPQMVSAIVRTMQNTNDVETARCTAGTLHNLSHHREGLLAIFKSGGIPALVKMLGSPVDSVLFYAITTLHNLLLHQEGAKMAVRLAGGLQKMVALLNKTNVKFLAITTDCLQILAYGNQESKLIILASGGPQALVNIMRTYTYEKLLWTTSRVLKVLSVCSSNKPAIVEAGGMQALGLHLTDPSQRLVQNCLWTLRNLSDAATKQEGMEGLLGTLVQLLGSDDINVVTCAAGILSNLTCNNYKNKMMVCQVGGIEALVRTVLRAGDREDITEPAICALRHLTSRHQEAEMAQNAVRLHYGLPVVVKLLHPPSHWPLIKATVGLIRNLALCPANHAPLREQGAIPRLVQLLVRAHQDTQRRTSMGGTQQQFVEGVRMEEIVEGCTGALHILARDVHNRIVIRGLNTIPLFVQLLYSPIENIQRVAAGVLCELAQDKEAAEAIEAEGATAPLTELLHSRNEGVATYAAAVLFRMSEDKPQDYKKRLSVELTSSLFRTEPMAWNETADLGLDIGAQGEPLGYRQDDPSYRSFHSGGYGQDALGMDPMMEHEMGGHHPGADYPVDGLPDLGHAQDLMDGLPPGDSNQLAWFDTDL
# Test: cell-based or functional assay
row,Binder,NanoBRET Abs IC50 [µM]
1,"Ac-[αAllylPro]D[Cha][B5(3)]DDAA[Phe(3-OMe)]S[PyrS2″]F[Bta]Q-NH2 (staple 1-4, 4-11) [I-1124]",> 20
2,"Ac-[αAllylPro]D[tBuAla][B5(24)]DDAAFN[PyrS2″][Phe(2-Cl)][Bta][Lys(iPr)]-NH2 (staple 1-4, 4-11) [I-1130]",7.6
3,"Ac-[αAllylPro]D[tBuAla][B5(24)]DD[Lys(iPr)]AFN[PyrS2″][Phe(2-Cl)][Bta]Q-NH2 (staple 1-4, 4-11) [I-1131]",18.8
4,"Ac-[αAllylPro]D[Cha][B5(3)]DDAA[Phe(3-CF3)]S[PyrS2″]F[Bta]Q-NH2 (staple 1-4, 4-11) [I-1125]",> 20

# Biological target: T2, B-cat-Halo (beta-catenin HaloTag fusion expressed in HEK293 cells) (UniProt P35222 1-781, HaloTag NanoBRET 618 Ligand bound to the HaloTag)
# T2 sequence (looked up): T1 sequence (looked up)
# Test: cell-based or functional assay
row,Binder,NanoBRET Abs IC50 [µM]
1,"Ac-[αAllylPro]D[tBuAla][B5(3)]D[Asp(OEt)″]AAFL[PyrS2″][3Thi][Bta]Q-NH2 (staple 1-4, 4-11) [I-2358]",52.2
2,"Ac-[αAllylPro]N[Cha][B5(3)]DQ[Lys(iPr)]AFL[PyrS2″]F[Bta]K-NH2 (staple 1-4, 4-11) [I-2350]",> 20
3,"Ac-[αAllylPro][Asp(OMe)][tBuAla][B5(3)]DDAAFL[PyrS2″][3Thi][Bta]Q-NH2 (staple 1-4, 4-11) [I-2359]",> 20
4,"Ac-[αAllylPro]N[Cha][B5(3)]D[TfeGA][Lys(iPr)]AFL[PyrS2″]F[Bta]Q-NH2 (staple 1-4, 4-11) [I-2341]",> 20
5,"Ac-[αAllylPro]D[tBuAla][B5(3)]N[Phe(3-COOH)]AAFT[PyrS2″][3Thi][Bta]Q-NH2 (staple 1-4, 4-11) [I-2336]",14.4
6,"Ac-[αAllylPro]D[tBuAla][B5(3)][Asp(OEt)″]DAAFL[PyrS2″][3Thi][Bta]Q-NH2 (staple 1-4, 4-11) [I-2357]",> 20
7,"Ac-[αAllylPro]N[Cha][B5(3)]D[Phe(3-COOH)][Lys(iPr)]AFL[PyrS2″]F[Bta]Q-NH2 (staple 1-4, 4-11) [I-2340]",> 20
8,"Ac-[αAllylPro]D[tBuAla][B5(3)]NT[Aib]AFN[PyrS2″][3Thi][Bta]Q-NH2 (staple 1-4, 4-11) [I-2338]",> 20
9,"Ac-[αAllylPro]N[Cha][B5(3)]DQ[hSer]AFL[PyrS2″]F[Bta]Q-NH2 (staple 1-4, 4-11; also: earlier eluting isomer, configuration not given here) [I-2354]",> 20
